Measurements published in the supplement of paper PMC10567573.

B1: VTI1B (parent)
chain: ANETLAEMEEELRYAPLSFRNPMM
B2: CLCN6 (parent)
chain: FQSISLRKIQFNFPYFRSDRDKRD
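Further: lentivirally expressed fusions sorted by FACS into six bins by GFP to DsRed ratio, PSI derived from sequencing read proportions per bin multiplied by bin number.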

Variants of: B1
Experiment: protein stability index of a GFP-peptide fusion (GPS, HEK-293T) (PSI 1-6); higher = more stable
Conditions: c terminus: a fixed tail appended
ANETLAEMEEELRYAPLSFKNPMM [R20K] gave a protein stability index of 3.36. Work on ANETLAEMEEELRYAPLSFLNPMM [R20L] yielded a protein stability index of 2.57. Work on ANETLAEMEEELRYAPLSFMNPMM [R20M] yielded a protein stability index of 2.4. With ANETLAEMEEELRYAPLSFNNPMM [R20N] the protein stability index was 1.51. ANETLAEMEEELRYAPLSFPNPMM [R20P] gave a protein stability index of 3.62. ANETLAEMEEELRYAPLSFQNPMM [R20Q] showed a protein stability index of 1.72. For ANETLAEMEEELRYAPLSFSNPMM [R20S], the protein stability index was 2.03. Work on ANETLAEMEEELRYAPLSFTNPMM [R20T] yielded a protein stability index of 2.42. In the case of ANETLAEMEEELRYAPLSFVNPMM [R20V], the protein stability index is reported as 1.71. In the case of ANETLAEMEEELRYAPLSFWNPMM [R20W], the protein stability index is reported as 2.48. Variant ANETLAEMEEELRYAPLSFYNPMM [R20Y] has a protein stability index of 2.12. Work on ANETLAEMEEELRYAPLSFRAPMM [N21A] yielded a protein stability index of 3.81. For ANETLAEMEEELRYAPLSFRCPMM [N21C], the protein stability index was 2.71. ANETLAEMEEELRYAPLSFRDPMM [N21D] gave a protein stability index of 3.12. ANETLAEMEEELRYAPLSFREPMM [N21E] showed a protein stability index of 3.95. Variant ANETLAEMEEELRYAPLSFRFPMM [N21F] has a protein stability index of 3.35. Variant ANETLAEMEEELRYAPLSFRGPMM [N21G] has a protein stability index of 3.72. ANETLAEMEEELRYAPLSFRHPMM [N21H] gave a protein stability index of 3.42. ANETLAEMEEELRYAPLSFRIPMM [N21I] showed a protein stability index of 2.92. ANETLAEMEEELRYAPLSFRKPMM [N21K] showed a protein stability index of 3.61. In the case of ANETLAEMEEELRYAPLSFRLPMM [N21L], the protein stability index is reported as 3.13. With ANETLAEMEEELRYAPLSFRMPMM [N21M] the protein stability index was 3.37. Work on ANETLAEMEEELRYAPLSFRPPMM [N21P] yielded a protein stability index of 3.58. Work on ANETLAEMEEELRYAPLSFRQPMM [N21Q] yielded a protein stability index of 3.76. ANETLAEMEEELRYAPLSFRRPMM [N21R] showed a protein stability index of 3.25. For ANETLAEMEEELRYAPLSFRSPMM [N21S], the protein stability index was 3.41. For ANETLAEMEEELRYAPLSFRTPMM [N21T], the protein stability index was 3.17. In the case of ANETLAEMEEELRYAPLSFRWPMM [N21W], the protein stability index is reported as 2.21. For ANETLAEMEEELRYAPLSFRYPMM [N21Y], the protein stability index was 3.39. With ANETLAEMEEELRYAPLSFRNAMM [P22A] the protein stability index was 3.56. With ANETLAEMEEELRYAPLSFRNCMM [P22C] the protein stability index was 3.25. ANETLAEMEEELRYAPLSFRNDMM [P22D] showed a protein stability index of 4.75. ANETLAEMEEELRYAPLSFRNEMM [P22E] gave a protein stability index of 3.97. For ANETLAEMEEELRYAPLSFRNFMM [P22F], the protein stability index was 2.67. Variant ANETLAEMEEELRYAPLSFRNGMM [P22G] has a protein stability index of 3.58. ANETLAEMEEELRYAPLSFRNHMM [P22H] gave a protein stability index of 4.1. With ANETLAEMEEELRYAPLSFRNIMM [P22I] the protein stability index was 3.03. Variant ANETLAEMEEELRYAPLSFRNKMM [P22K] has a protein stability index of 3.43. ANETLAEMEEELRYAPLSFRNLMM [P22L] gave a protein stability index of 3.34. With ANETLAEMEEELRYAPLSFRNMMM [P22M] the protein stability index was 3.63. Work on ANETLAEMEEELRYAPLSFRNNMM [P22N] yielded a protein stability index of 3.58. With ANETLAEMEEELRYAPLSFRNQMM [P22Q] the protein stability index was 4.11. ANETLAEMEEELRYAPLSFRNRMM [P22R] showed a protein stability index of 3.32. For ANETLAEMEEELRYAPLSFRNSMM [P22S], the protein stability index was 3.48. In the case of ANETLAEMEEELRYAPLSFRNTMM [P22T], the protein stability index is reported as 3.22. For ANETLAEMEEELRYAPLSFRNVMM [P22V], the protein stability index was 2.81. With ANETLAEMEEELRYAPLSFRNWMM [P22W] the protein stability index was 3.03. With ANETLAEMEEELRYAPLSFRNYMM [P22Y] the protein stability index was 3.38. In the case of ANETLAEMEEELRYAPLSFRNPAM [M23A], the protein stability index is reported as 2.71. Variant ANETLAEMEEELRYAPLSFRNPCM [M23C] has a protein stability index of 3.62. ANETLAEMEEELRYAPLSFRNPDM [M23D] gave a protein stability index of 4.13. For ANETLAEMEEELRYAPLSFRNPEM [M23E], the protein stability index was 2.79. In the case of ANETLAEMEEELRYAPLSFRNPFM [M23F], the protein stability index is reported as 2.62. With ANETLAEMEEELRYAPLSFRNPGM [M23G] the protein stability index was 3.46. ANETLAEMEEELRYAPLSFRNPHM [M23H] showed a protein stability index of 3.24. For ANETLAEMEEELRYAPLSFRNPIM [M23I], the protein stability index was 2.04. Variant ANETLAEMEEELRYAPLSFRNPKM [M23K] has a protein stability index of 3.07. For ANETLAEMEEELRYAPLSFRNPLM [M23L], the protein stability index was 3.56. ANETLAEMEEELRYAPLSFRNPNM [M23N] gave a protein stability index of 3.67. With ANETLAEMEEELRYAPLSFRNPQM [M23Q] the protein stability index was 2.89. Variant ANETLAEMEEELRYAPLSFRNPRM [M23R] has a protein stability index of 2.19. Work on ANETLAEMEEELRYAPLSFRNPSM [M23S] yielded a protein stability index of 3.62. In the case of ANETLAEMEEELRYAPLSFRNPTM [M23T], the protein stability index is reported as 3.35. Work on ANETLAEMEEELRYAPLSFRNPVM [M23V] yielded a protein stability index of 1.83. Variant ANETLAEMEEELRYAPLSFRNPWM [M23W] has a protein stability index of 2.13. Variant ANETLAEMEEELRYAPLSFRNPYM [M23Y] has a protein stability index of 2.79. ANETLAEMEEELRYAPLSFRNPMA [M24A] showed a protein stability index of 3.78. ANETLAEMEEELRYAPLSFRNPMC [M24C] showed a protein stability index of 2.37. With ANETLAEMEEELRYAPLSFRNPMD [M24D] the protein stability index was 3.92. In the case of ANETLAEMEEELRYAPLSFRNPME [M24E], the protein stability index is reported as 4.67. Variant ANETLAEMEEELRYAPLSFRNPMF [M24F] has a protein stability index of 2.83. For ANETLAEMEEELRYAPLSFRNPMG [M24G], the protein stability index was 3.72. ANETLAEMEEELRYAPLSFRNPMH [M24H] gave a protein stability index of 3.26. ANETLAEMEEELRYAPLSFRNPMK [M24K] showed a protein stability index of 3.91. ANETLAEMEEELRYAPLSFRNPML [M24L] showed a protein stability index of 2.26. ANETLAEMEEELRYAPLSFRNPMN [M24N] showed a protein stability index of 3.2. ANETLAEMEEELRYAPLSFRNPMP [M24P] gave a protein stability index of 4.98. In the case of ANETLAEMEEELRYAPLSFRNPMQ [M24Q], the protein stability index is reported as 2.46. Work on ANETLAEMEEELRYAPLSFRNPMR [M24R] yielded a protein stability index of 3.21. ANETLAEMEEELRYAPLSFRNPMS [M24S] gave a protein stability index of 4.41. For ANETLAEMEEELRYAPLSFRNPMT [M24T], the protein stability index was 3.97. ANETLAEMEEELRYAPLSFRNPMV [M24V] showed a protein stability index of 3.04. Work on ANETLAEMEEELRYAPLSFRNPMW [M24W] yielded a protein stability index of 3.97. ANETLAEMEEELRYAPLSFRNPMY [M24Y] showed a protein stability index of 3.46.

Variants of: B2
Experiment: as above
Conditions: c terminus: a fixed tail appended
AQSISLRKIQFNFPYFRSDRDKRD [F1A] showed a protein stability index of 2.6. In the case of CQSISLRKIQFNFPYFRSDRDKRD [F1C], the protein stability index is reported as 2.4. DQSISLRKIQFNFPYFRSDRDKRD [F1D] showed a protein stability index of 3.34. With EQSISLRKIQFNFPYFRSDRDKRD [F1E] the protein stability index was 4. GQSISLRKIQFNFPYFRSDRDKRD [F1G] gave a protein stability index of 2.16. Work on HQSISLRKIQFNFPYFRSDRDKRD [F1H] yielded a protein stability index of 2.83. IQSISLRKIQFNFPYFRSDRDKRD [F1I] gave a protein stability index of 2.16. Work on KQSISLRKIQFNFPYFRSDRDKRD [F1K] yielded a protein stability index of 3.31. NQSISLRKIQFNFPYFRSDRDKRD [F1N] showed a protein stability index of 3.76. For PQSISLRKIQFNFPYFRSDRDKRD [F1P], the protein stability index was 2.29.
